In paper PMC8262862, “A Prevalent Focused Human Antibody Response to the Influenza Virus Hemagglutinin Head Interface” (mBio, 2021):

B1: D1 H1-17/H3-14 Fab, His-tagged (binding studies) (Fab, V domains shown)
VH: QVQLQESGPGLVKPSESLSLTCSVSGGSVSSNLHYWSWIRQLPGKGLEWIGYISYTGSTKYNPSLNGRVTLSIDASKNQFSLELSSVTAADTAVYYCARDFFEKLIADDLNAFDIWGQGTMVTVSG
VL: DIRVTQSPSSLSASVGDRVTITCRASQSISRSLNWYQQRPGKAPKFLIYAASNLQSGVPSRFSGGGSGTDFTLTISSLQPEDFATYYCQETYSRTFGQGTKADIK
notes: not shown: His6, C-terminal, kept
B2: D2 H1-1/H3-1 Fab, His-tagged (binding studies) (Fab, V domains shown)
VH: QVQLVQSGGGLVRPGGSLRLSCAASGFTFSSAWMTWVRQAPGKGLEWVANIKEDGSEKYYVDSVKGRFSISRDNAKNSLYLQISSLRAEDTAVYYCARRFVERLWGQSKPYDAVDIWGQGTMVTVSG
VL: DIQMTQSPSSLSASVGDRVTITCRASQSISNYLNWYQQKPGKAPKLLIYVASNLQSGVPSRFSGSGSGTDFALTISSLQPEDFASYYCQQSYSPVTTFGGGTKVEIK
notes: as for B1
B3: H2214 Fab, His tag removed (competitor in BLI) (Fab, V domains shown)
VH: EVQLLESGGGLVQPGGSLRLSCAASGFTFNHYAMTWVRQAPGKGLEWVASSSGSGRSTYYTDSVKGRFSVSRDNSKNTLYLQMNSLRAEDTAVYYCAKSSNYYGSGSYSPDDYYHMDVWGQGTTVTVSG
VL: EIVMTQSPDTLSVSPGERATLSCRASESISSNLAWYQQKPGQVPRLLIYGASTRATGVPARFTGSGSGTEFTLTISSLQSEDFAVYYCQQYNNRLPYTFGQGTKLEIK

Target: T1, HA head domain of A/Texas/50/2012(H3N2), monomeric (Influenza A virus A/Texas/50/2012(H3N2), strain)
T1 construct: also called monomeric HA heads
Assay: BLI
Settings: both partners purified

Binder	binding result
B1	binds
B2	binds
B3	binds
